Assay results published in patent US20210380994A1, “LACTOCOCCUS LACTIS EXPRESSION SYSTEM FOR DELIVERING PROTEINS EFFICACIOUS FOR THE TREATMENT OF EPITHELIAL BARRIER FUNCTION DISORDERS” (Second Genome, Inc., priority 2018, published 2021).
Where two headings read alike, the source gives them in different places.

Columns and labels:
[1] = post-translational modification (PTM) analysis by LC/MS/MS peptide mapping; assay type: physicochemical; settings: non-stress
Protocol: Studies were performed to identify residues of SG-11 particularly susceptible to PTMs using LC/MS/MS. The analysis was performed by LakePharma (Belmont, Calif.) to 1) confirm the amino acid sequence of SG11 (SEQ ID NO-9), and 2) determine any post-translational modification which could lead to reduced biological activity and immunogenicity, particularly deamidation and oxidation.
For peptide mapping and PTM analysis, samples were treated with DTT and IAA, followed by trypsin digestion. The digested sample was then analyzed by Waters ACQUITY UPLC coupled to Xevo G2-XS QTOF mass spectrometer using a Protein BEH C18 column.

[2] = for Carbamidomethy C147, VDGEICYVSCQNVK (SEQ ID NO: 18) / Carbamidomethy C151, VDGEICYVSCQNVK (SEQ ID NO: 18): artificial carbamidomethylation by iodoacetamide
[3] = tested on: trypsin
[4] = normalized to corresponding precursor
[5] = normalized to total peptide ion intensity

B1: SG-11: Roseburia hominis protein comprising SEQ ID NO:3; tested as SEQ ID NO:5, SEQ ID NO:7 or FLAG-tagged SEQ ID NO:9 (protein, listed as Rosburia hominis)
chain: LEGEESVVYVGKKGVIASLDVETLDQSYYDETELKSYVDAEVEDYTAEHGKNAVKVESLKVEDGVAKLKMKYKTPEDYTAFNGIELYQGKVVASLAAGYVYDGEFARVEEGKVVGAATKQDIYSEDDLKVAIIRANTDVKVDGEICYVSCQNVKLTGKDSVSIRDGYYLETGSVTASVDVTGQESVGTEQLSGTEQMEMTGEPVNADDTEQTEAAAGDGSFETDVYTFIVYK
[1]; [4]
  Deamidation N83 (peptide TPEDYTAFNGIELYQGK), % peptide: 3.77%
  Deamidation N137 (peptide ANTDVK), % peptide: 1.03%
  Deamidation N153 (peptide VDGEICYVSCQNVK), % peptide: 0.2%
[1]; normalized to total intensity of corresponding precursor with or without modification
  Deamidation N53 (peptide NAVK), % peptide: 7.84%
[1]; [5]
  Deamidation N53 (peptide NAVK), % total ion: 0.01%
  Deamidation N83 (peptide TPEDYTAFNGIELYQGK), % total ion: 0.25%
  Deamidation N137 (peptide ANTDVK), % total ion: 0.25%
  Deamidation N153 (peptide VDGEICYVSCQNVK), % total ion: 0.01%
  Oxidation M1 (peptide MLEGEESVVYVGK), % total ion: <0.01%
[2]; 4° C., 2 weeks, 1 mg/ml
  aggregates (SEC-HPLC): low level of aggregates
[2]; 37° C., 2 weeks, 1 mg/ml
  aggregation (SEC-HPLC): major aggregation occurred
[2]; 40° C. for two weeks
  Deamdation N206, GYYLETGSV...TFIVYK (SEQ ID NO: 29): 3.62%
  Deamidation N83, TPEDYTAFNGIELYQGX (SEQ ID NO: 26): 99.88%
  Deamidation N83 Deamidation Q89, TPEDYTAFNGIELYQGX (SEQ ID NO: 26): 0.12%
  Deamidation N137, ANTDVK (SEQ ID NO: 27): 14.61%
  Deamidation N153, VDGEICYVSCQNVK (SEQ ID NO: 18): 0%
  Deamidation Q30, GVIASLDVETLDQSYYDETELK (SEQ ID NO: 25): 0.09%
  Deamidation Q152 Deamidation N153 Carbamidomethy C151, VDGEICYVSCQNVK (SEQ ID NO: 18): 3.1%
  No modification, ANTDVK (SEQ ID NO: 27): 85.39%
  No modification, GVIASLDVETLDQSYYDETELK (SEQ ID NO: 25): 99.91%
  No modification, GYYLETGSVTASVDVTGQESVGTEQLSGTEQMEMTGEPVNADDTEQTEAAAGDGSFETDVYTFIVYK (SEQ ID NO: 29): 96.38%
  No modification, MLEGEESVVYVGK (SEQ ID NO: 24): 99.82%
  No modification, TPEDYTAFNGIELYQGX (SEQ ID NO: 26): 0%
  No modification, VDGEICYVSCQNVK (SEQ ID NO: 18): 44.85%
  Oxidation M2.00, GYYLETGSV...TFIVYK (SEQ ID NO: 29): 0%
  Oxidation M198, GYYLETGSV...TFIVYK (SEQ ID NO: 29): 0%
  Oxidation of M, MLEGEESVVYVGK (SEQ ID NO: 24): 0.18%
  Carbamidomethy C147, VDGEICYVSCQNVK (SEQ ID NO: 18): 33.59%
  Carbamidomethy C151, VDGEICYVSCQNVK (SEQ ID NO: 18): 18.45%
[2]; Freeze and thaw (6 cycles) −80° C. to room temperature
  Observation of solution: clear
[2]; Mechanical stress: 350 rpm shake, 4° C., 24 hr
  Observation of solution: clear
[2]; No treatment
  Deamdation N206, GYYLETGSV...TFIVYK (SEQ ID NO: 29): 0%
  Deamidation N53, NAVK (SEQ ID NO 30): 7.84%
  Deamidation N83, TPEDYTAFNGIELYQGX (SEQ ID NO: 26): 17.43%
  Deamidation N83 Deamidation Q89, TPEDYTAFNGIELYQGX (SEQ ID NO: 26): 0%
  Deamidation N137, ANTDVK (SEQ ID NO: 27): 1.04%
  Deamidation N153, VDGEICYVSCQNVK (SEQ ID NO: 18): 0.02%
  Deamidation Q30, GVIASLDVETLDQSYYDETELK (SEQ ID NO: 25): 0%
  Deamidation Q152 Deamidation N153 Carbamidomethy C151, VDGEICYVSCQNVK (SEQ ID NO: 18): 0%
  No modification, ANTDVK (SEQ ID NO: 27): 98.96%
  No modification, GVIASLDVETLDQSYYDETELK (SEQ ID NO: 25): 100%
  No modification, GYYLETGSV...TFIVYK (SEQ ID NO: 29): 100%
  No modification, MLEGEESVVYVGK (SEQ ID NO: 24): 99.78%
  No modification, TPEDYTAFNGIELYQGX (SEQ ID NO: 26): 82.57%
  No modification, VDGEICYVSCQNVK (SEQ ID NO: 18): 99.98%
  Oxidation M2.00, GYYLETGSV...TFIVYK (SEQ ID NO: 29): 0%
  Oxidation M198, GYYLETGSV...TFIVYK (SEQ ID NO: 29): 0%
  Oxidation of M, MLEGEESVVYVGK (SEQ ID NO: 24): 0.22%
[2]; Oxidation (H2O2)
  Deamdation N206, GYYLETGSV...TFIVYK (SEQ ID NO: 29): 0%
  Deamidation N83, TPEDYTAFNGIELYQGX (SEQ ID NO: 26): 37%
  Deamidation N83 Deamidation Q89, TPEDYTAFNGIELYQGX (SEQ ID NO: 26): 0%
  Deamidation N137, ANTDVK (SEQ ID NO: 27): 16.44%
  Deamidation N153, VDGEICYVSCQNVK (SEQ ID NO: 18): 0%
  Deamidation Q30, GVIASLDVETLDQSYYDETELK (SEQ ID NO: 25): 0.07%
  Deamidation Q152 Deamidation N153 Carbamidomethy C151, VDGEICYVSCQNVK (SEQ ID NO: 18): 0.31%
  No modification, ANTDVK (SEQ ID NO: 27): 83.56%
  No modification, GVIASLDVETLDQSYYDETELK (SEQ ID NO: 25): 99.93%
  No modification, GYYLETGSV...TFIVYK (SEQ ID NO: 29): 19.17%
  No modification, MLEGEESVVYVGK (SEQ ID NO: 24): 99.88%
  No modification, TPEDYTAFNGIELYQGX (SEQ ID NO: 26): 63%
  No modification, VDGEICYVSCQNVK (SEQ ID NO: 18): 63.23%
  Oxidation M2.00, GYYLETGSV...TFIVYK (SEQ ID NO: 29): 63.9%
  Oxidation M198, GYYLETGSV...TFIVYK (SEQ ID NO: 29): 16.92%
  Oxidation of M, MLEGEESVVYVGK (SEQ ID NO: 24): 0.12%
  Carbamidomethy C147, VDGEICYVSCQNVK (SEQ ID NO: 18): 34.52%
  Carbamidomethy C151, VDGEICYVSCQNVK (SEQ ID NO: 18): 1.93%
[2]; Oxidation: Hydroperoxide (0.005%) 40° C., 16 hr
  Observation of solution: clear
[2]; Temperature (2 weeks) 4° C.
  Observation of solution: clear
[2]; Temperature (2 weeks) 25° C.
  Observation of solution: clear
[2]; Temperature (2 weeks) 37° C.
  Observation of solution: clear
[2]; Temperature (2 weeks) 40° C.
  Observation of solution: clear
[2]; pH 4 and pH 9
  Observation of solution: clear
[2]; pH 9
  Deamdation N206, GYYLETGSV...TFIVYK (SEQ ID NO: 29): 11.84%
  Deamidation N83, TPEDYTAFNGIELYQGX (SEQ ID NO: 26): 19.1%
  Deamidation N83 Deamidation Q89, TPEDYTAFNGIELYQGX (SEQ ID NO: 26): 0%
  Deamidation N137, ANTDVK (SEQ ID NO: 27): 23.95%
  Deamidation N153, VDGEICYVSCQNVK (SEQ ID NO: 18): 0.35%
  Deamidation Q30, GVIASLDVETLDQSYYDETELK (SEQ ID NO: 25): 0.05%
  Deamidation Q152 Deamidation N153 Carbamidomethy C151, VDGEICYVSCQNVK (SEQ ID NO: 18): 28%
  No modification, ANTDVK (SEQ ID NO: 27): 76.05%
  No modification, GVIASLDVETLDQSYYDETELK (SEQ ID NO: 25): 99.95%
  No modification, GYYLETGSV...TFIVYK (SEQ ID NO: 29): 88.16%
  No modification, MLEGEESVVYVGK (SEQ ID NO: 24): 99.94%
  No modification, TPEDYTAFNGIELYQGX (SEQ ID NO: 26): 80.9%
  No modification, VDGEICYVSCQNVK (SEQ ID NO: 18): 8.76%
  Oxidation M2.00, GYYLETGSV...TFIVYK (SEQ ID NO: 29): 0%
  Oxidation M198, GYYLETGSV...TFIVYK (SEQ ID NO: 29): 0%
  Oxidation of M, MLEGEESVVYVGK (SEQ ID NO: 24): 0.61%
  Carbamidomethy C147, VDGEICYVSCQNVK (SEQ ID NO: 18): 71.71%
  Carbamidomethy C151, VDGEICYVSCQNVK (SEQ ID NO: 18): 12.45%
[3]
  cleavage by trypsin (SDS-PAGE): a predominant band is generated in the presence of trypsin
